Target: purified folded MHC-complex (Example 34)
Test: sandwich ELISA: W6/32 coated, detection with HRP-conjugated rabbit anti-β2m

Substance: W6/32 mouse-anti-HLA-ABC antibody (Dako M0736)
- OD450 of wells with MHC complex relative to wells with the negative control β2m: 6 fold

Reference: patent US20200347103A1
